Laboratory results from IntAct's records for PubMed 17589525.

B1: Splicing factor 45 (Homo sapiens), Q96I25 (parent)
chain: MSLYDDLGVETSDSKTEGWSKNFKLLQSQLQVKKAALTQAKSQRTKQSTVLAPVIDLKRGGSSDDRQIVDTPPHVAAGLKDPVPSGFSAGEVLIPLADEYDPMFPNDYEKVVKRQREERQRQRELERQKEIEEREKRRKDRHEASGFARRPDPDSDEDEDYERERRKRSMGGAAIAPPTSLVEKDKELPRDFPYEEDSRPRSQSSKAAIPPPVYEEQDRPRSPTGPSNSFLANMGGTVAHKIMQKYGFREGQGLGKHEQGLSTALSVEKTSKRGGKIIVGDATEKDASKKSDSNPLTEILKCPTKVVLLRNMVGAGEVDEDLEVETKEECEKYGKVGKCVIFEIPGAPDDEAVRIFLEFERVESAIKAVVDLNGRYFGGRVVKACFYNLDKFRVLDLAEQV
partner: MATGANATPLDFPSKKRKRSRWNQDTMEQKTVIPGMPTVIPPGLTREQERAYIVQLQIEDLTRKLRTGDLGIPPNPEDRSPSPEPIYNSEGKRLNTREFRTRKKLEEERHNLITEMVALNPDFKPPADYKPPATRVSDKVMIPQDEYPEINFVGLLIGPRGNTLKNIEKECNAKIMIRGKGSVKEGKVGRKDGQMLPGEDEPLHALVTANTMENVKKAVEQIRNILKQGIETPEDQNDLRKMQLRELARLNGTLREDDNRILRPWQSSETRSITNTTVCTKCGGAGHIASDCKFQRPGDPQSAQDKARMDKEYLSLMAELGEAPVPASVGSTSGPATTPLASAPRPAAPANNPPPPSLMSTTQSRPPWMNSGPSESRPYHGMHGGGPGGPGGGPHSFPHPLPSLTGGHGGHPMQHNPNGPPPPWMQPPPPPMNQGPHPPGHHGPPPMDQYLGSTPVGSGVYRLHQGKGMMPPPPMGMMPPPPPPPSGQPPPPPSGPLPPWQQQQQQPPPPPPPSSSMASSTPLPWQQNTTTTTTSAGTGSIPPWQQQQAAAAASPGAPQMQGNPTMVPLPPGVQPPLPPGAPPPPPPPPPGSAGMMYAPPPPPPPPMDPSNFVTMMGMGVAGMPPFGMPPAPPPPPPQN
B2: Splicing factor 45 (Homo sapiens), Q96I25 (parent)
chain: B1 chain

Variants of: B1
Settings: with sf01_human SF1, Q15637

effect of a mutation on the interaction	Variant
decreasing interaction	R375A
disrupting interaction	R375D
decreasing interaction	F377A
decreasing interaction	F377Y
disrupting interaction	D319A
disrupting interaction	D319K
decreasing interaction	Y376A

Variants of: B2
Settings: with U2AF2, P26368
U2AF2, P26368, sequence (P26368 whole entry): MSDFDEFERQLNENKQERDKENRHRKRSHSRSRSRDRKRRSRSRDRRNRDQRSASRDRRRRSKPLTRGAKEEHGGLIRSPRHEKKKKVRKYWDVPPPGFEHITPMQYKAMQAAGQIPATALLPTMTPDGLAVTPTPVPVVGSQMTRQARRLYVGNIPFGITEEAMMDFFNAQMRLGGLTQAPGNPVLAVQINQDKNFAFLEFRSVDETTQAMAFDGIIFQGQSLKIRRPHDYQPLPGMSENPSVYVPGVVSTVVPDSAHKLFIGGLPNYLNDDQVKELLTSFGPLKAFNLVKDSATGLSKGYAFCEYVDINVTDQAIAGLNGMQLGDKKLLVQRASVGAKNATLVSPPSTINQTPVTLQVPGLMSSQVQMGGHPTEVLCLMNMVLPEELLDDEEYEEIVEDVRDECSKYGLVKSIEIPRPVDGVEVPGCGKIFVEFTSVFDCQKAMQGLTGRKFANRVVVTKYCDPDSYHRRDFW

effect of a mutation on the interaction	Variant
disrupting interaction	R375D
disrupting interaction	R375A
disrupting interaction strength	D319A;E320A;D321A
decreasing interaction	F377A
disrupting interaction	E329Q
disrupting interaction	D319K

Variants of: B2
Settings: with SF3B1, O75533-1
SF3B1, O75533-1, sequence (O75533 whole entry): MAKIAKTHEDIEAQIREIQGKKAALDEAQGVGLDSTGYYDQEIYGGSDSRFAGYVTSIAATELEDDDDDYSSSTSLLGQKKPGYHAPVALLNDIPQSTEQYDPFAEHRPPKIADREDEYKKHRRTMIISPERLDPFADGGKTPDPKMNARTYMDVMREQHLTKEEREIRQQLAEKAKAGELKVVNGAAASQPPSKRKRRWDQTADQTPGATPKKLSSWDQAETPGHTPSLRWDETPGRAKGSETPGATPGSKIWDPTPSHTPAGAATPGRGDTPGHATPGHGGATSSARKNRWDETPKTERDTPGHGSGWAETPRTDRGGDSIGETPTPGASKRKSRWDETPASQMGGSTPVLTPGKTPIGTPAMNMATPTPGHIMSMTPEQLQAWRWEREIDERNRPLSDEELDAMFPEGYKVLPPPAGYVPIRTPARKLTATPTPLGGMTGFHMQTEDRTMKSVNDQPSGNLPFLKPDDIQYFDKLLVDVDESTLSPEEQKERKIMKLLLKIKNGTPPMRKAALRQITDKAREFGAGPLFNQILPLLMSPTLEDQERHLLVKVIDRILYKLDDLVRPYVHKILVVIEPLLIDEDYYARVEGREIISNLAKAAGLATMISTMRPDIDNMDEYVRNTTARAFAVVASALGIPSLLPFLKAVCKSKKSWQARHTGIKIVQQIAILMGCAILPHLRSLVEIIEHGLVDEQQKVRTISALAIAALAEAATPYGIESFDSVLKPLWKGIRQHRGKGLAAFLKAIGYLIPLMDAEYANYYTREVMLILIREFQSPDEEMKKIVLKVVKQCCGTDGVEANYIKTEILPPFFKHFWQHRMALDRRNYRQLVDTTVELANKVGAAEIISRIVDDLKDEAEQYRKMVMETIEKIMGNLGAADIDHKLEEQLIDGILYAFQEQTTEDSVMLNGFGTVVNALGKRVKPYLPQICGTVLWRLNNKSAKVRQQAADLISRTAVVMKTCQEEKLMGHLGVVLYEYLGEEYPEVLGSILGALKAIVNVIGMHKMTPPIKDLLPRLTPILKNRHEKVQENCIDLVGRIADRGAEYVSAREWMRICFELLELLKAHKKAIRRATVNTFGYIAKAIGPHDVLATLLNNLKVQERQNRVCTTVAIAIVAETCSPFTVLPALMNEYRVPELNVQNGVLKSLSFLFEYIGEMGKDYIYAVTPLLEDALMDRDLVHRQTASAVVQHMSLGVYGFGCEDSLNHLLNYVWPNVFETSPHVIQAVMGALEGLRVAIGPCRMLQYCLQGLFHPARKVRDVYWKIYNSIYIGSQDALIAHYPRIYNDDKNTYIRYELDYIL

effect of a mutation on the interaction	Variant
disrupting interaction	R375A
disrupting interaction strength	D319A;E320A;D321A
disrupting interaction	Y376A
disrupting interaction	F377A
decreasing interaction	E329Q
disrupting interaction	D319K
